Experimental data published in patent US20190248889A1 (Genentech, published 2019).
One block for each binder: values may come before it.

Target: T1, human LgR5 (human, UniProt O75473 22-907)
T1 construct: This one molecule is used for transfected 293 cells and for endogenous LgR5 in human cells and tissues; also called leucine-rich repeat-containing G protein-coupled receptor 5
T1 sequence: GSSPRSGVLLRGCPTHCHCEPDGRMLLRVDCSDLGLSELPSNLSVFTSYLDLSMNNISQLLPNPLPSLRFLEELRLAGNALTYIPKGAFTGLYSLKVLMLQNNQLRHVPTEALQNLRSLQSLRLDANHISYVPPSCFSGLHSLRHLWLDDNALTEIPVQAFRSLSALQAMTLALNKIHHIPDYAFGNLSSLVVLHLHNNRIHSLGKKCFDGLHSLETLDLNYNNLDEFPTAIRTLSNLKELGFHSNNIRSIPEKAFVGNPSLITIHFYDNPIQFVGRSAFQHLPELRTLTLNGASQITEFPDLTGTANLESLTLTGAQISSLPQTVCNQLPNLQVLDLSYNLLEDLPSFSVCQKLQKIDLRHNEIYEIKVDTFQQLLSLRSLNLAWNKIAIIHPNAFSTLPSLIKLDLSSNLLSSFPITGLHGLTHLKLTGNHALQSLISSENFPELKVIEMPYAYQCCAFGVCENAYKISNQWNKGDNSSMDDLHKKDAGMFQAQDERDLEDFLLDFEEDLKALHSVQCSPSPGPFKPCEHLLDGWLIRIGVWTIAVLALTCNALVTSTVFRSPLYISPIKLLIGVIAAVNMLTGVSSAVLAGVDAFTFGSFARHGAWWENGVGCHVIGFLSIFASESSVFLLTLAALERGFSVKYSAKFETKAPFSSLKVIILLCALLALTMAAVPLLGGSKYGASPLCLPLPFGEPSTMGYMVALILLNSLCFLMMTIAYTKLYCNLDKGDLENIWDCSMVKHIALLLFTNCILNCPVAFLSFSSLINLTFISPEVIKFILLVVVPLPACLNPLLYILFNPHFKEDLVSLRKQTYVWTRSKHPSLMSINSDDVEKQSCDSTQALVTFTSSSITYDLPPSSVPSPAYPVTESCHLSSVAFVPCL
Assay: IHC on SW403 colon cancer cell line
Experimental: Staining with antibody LGR5.26-1 was compared to staining with antibody LGR5.1-12 in CXF233 (human colon tumor model; Oncotest) xenograft tumors and in various colon cancer cell lines. Immunohistochemistry (IHC) for Lgr5 was performed on a Dako Universal Autostainer (Dako, Carpinteria, Calif.). Briefly, formalin-fixed, paraffin-embedded tumor tissue were deparaffinized and antigen unmasking was performed in a PT Module (Thermo Scientific, Kalamazoo, Mich.) with Target Retrieval pH 6 (Dako) at 99° C. for 20 minutes. Endogenous peroxidase was inhibited with treatment of 3% H202 in PBS for 4 minutes and endogenous biotin was blocked using the Avidin/Biotin blocking kit (Vector Labs, Burlingame, Calif.). Endogenous IgGs were blocked using 10% donkey serum in 3% BSA/PBS and primary antibody to Lgr5 (LGR5.1-12 or 26-1) was incubated at 4 μg/ml for 60 minutes at room temperature. […] Antibody binding was detected with Metal enhanced DAB (Pierce Rockford, Ill.) for 5 minutes at room temperature and sections were counterstained with Mayer's Hematoxylin (Rowley Biochemical, Danvers, Mass.).
Each cell line was also characterized by lgr5 gene expression using RNAseq data into the following levels of expression: none, very low, low, moderate, and high. In addition, LgR5 levels were determined in the cell lines by IHC, substantially as described above.

binding result: binds
B1: antibody LGR5.26-1 (antibody, V domains shown)
VH: QSLEESGGDLVKPGGTLTLTCTASGIDFSYYSYMCWVRQAPGKGLEWIACIYAGTSGSTYYASWAKGRFTISKTSSTTVTLQMISLTAADTATYFCARSYYTFGVNGYAWDLWGPGTLVTVSS
VL: AFELTQTPSSVEAAVGGTVTIKCQASQSISVGLAWYQQKPGQPPKLLIYKASTLASGVPSRFKGSRSGTEFTLTISDLECADAATYYCQSYYDSSTTANVFGGGTEVVVKG
notes: also called αLgR5.26-1; antibody 26-1

binding result: binds
B2: antibody LGR5.1-12 (antibody, V domains shown)
VH: QSLEESGGGLVQPEGSLTLTCTASGFSFSRTYWICWDRQAPGKGLEWIACIYAGGSDNTYYASWAKGRFTISKTSSTTVTLQVTSLTAADTATYFCARYYAGSSEYFNLWGPGTLVTVSS
VL: AYDMTQTPASVEVAVGGTVTIKCQASQSIGSNLAWYQQKPGQPPKLLIYGASNLASGVSSRFKGSGSGTEFTLTISDLECADAATYYCQTTYGSSSDGFFWTFGGGTEVVVKG
notes: also called αLgR5.1-12; antibody 1-12
